Data on six molecules can be found in patent publication US20230057987A1 (published 2023).

The target of assay [1] is T1, similar peptide SP-05-0007, source protein not stated peptide on HLA-A*02:01 (human).
T1 peptide: KIFPALCTV
Nature of the assay: killing.

Assay [2] addresses T2, CT45-IP alanine variant, position 8 peptide on HLA-A*02:01 (human).
T2 peptide: KIFEMLEAV
Nature of the assay: killing.

In assay [3] the target is T3, similar peptide SP-05-0001, source protein not stated peptide on HLA-A*02:01 (human).
T3 peptide: HIMEHLEGV
Kind of assay: killing.

Assay [4] deals with T4, similar peptide SP-05-0010, source protein not stated peptide on HLA-A*02:01 (human).
T4 peptide: RIFETVNSV
Nature of the assay: killing.

The target in assay [5] is T5, similar peptide SP-05-0005, source protein not stated peptide on HLA-A*02:01 (human).
T5 peptide: KIEEFLEAV
Kind of assay: killing.

Assay [6] addresses T6, similar peptide SP-05-0009, source protein not stated peptide on HLA-A*02:01 (human).
T6 peptide: KIIDLLPKV
Nature of the assay: killing.

The target in assay [7] is T7, similar peptide SP-05-0003, source protein not stated peptide on HLA-A*02:01 (human).
T7 peptide: KVTEMLVNV
Nature of the assay: killing.

Assay [8] has as its target T8, similar peptide SP-05-0008, source protein not stated peptide on HLA-A*02:01 (human).
T8 peptide: KILDELEKV
Nature of the assay: killing.

In assay [9] the target is T9, similar peptide SP-05-0002, source protein not stated peptide on HLA-A*02:01 (human).
T9 peptide: KIFSGLLKV
Nature of the assay: killing.

Assay [10] addresses T10, similar peptide SP-05-0006, source protein not stated peptide on HLA-A*02:01 (human).
T10 peptide: KIAELLENV
Kind of assay: killing.

Assay [11] concerns the target T11, similar peptide SP-05-0004, source protein not stated peptide on HLA-A*02:01 (human).
T11 peptide: KIWEWLVGV
Nature of the assay: killing.

Assay [12] deals with T12, CT45-IP alanine variant, position 1 peptide on HLA-A*02:01 (human).
T12 peptide: AIFEMLEGV
Nature of the assay: killing.

Assay [13] addresses CT45-IP antigenic peptide (…) in complex with HLA-A*02 presented on cells (peptide-loaded T2 cells; NCIH1703 and A375 tumor cells) (human). Kind of assay: cell-based or functional assay.
The target of assay [14] is T13, CT45 (CT45A1, A2, A3, A5 to A10); CT45-IP peptide on HLA-A*02:01 (human).
T13 peptide: KIFEMLEGV
Nature of the assay: luciferase release, 24 h, 1:1; CD8+ T cells with TCR mRNA, T2 cells with titrated peptide; full-length, on cells.

Assay [15] addresses T13, CT45 (CT45A1, A2, A3, A5 to A10); …. Nature of the assay: CT45-IP-HLA-A*02 dextramer on T cells with TCR mRNA; TCR found by tetramer sorting; full-length, on cells.
Assay [16] has as its target CT45-IP-HLA-A*02 dextramer (human). Nature of the assay: flow cytometry, dextramer staining of TCR-mRNA electroporated T cells, gated on CD3+. (In flow cytometry, cells or beads pass a laser one at a time.)
Assay [17] concerns the target T14, CT45-IP alanine variant, position 5 peptide on HLA-A*02:01 (human).
T14 peptide: KIFEALEGV
Kind of assay: killing.

B1: TCR-2 (TCR, V domains shown)
Valpha: QKITQTQPGMFVQEKEAVTLDCTYDTSDQSYGLFWYKQPSSGEMIFLIYQGSYDEQNATEGRYSLNFQKARKSANLVISASQLGDSAMYFCAMREGSDAGGTSYGKLTFGQGTILTVHP
Vbeta: GVIQSPRHLIKEKRETATLKCYPIPRHDTVYWYQQGPGQDPQFLISFYEKMQSDKGSIPDRFSAQQFSDYHSELNMSSLELGDSALYFCASSPSTGRLNTEAFFGQGTRLTVV
Regarding B1, the binding result is “no recognition” in assay [1]; “recognises” in [2]; “no recognition” in [3]; “no recognition” in assay [4]; “no recognition” in assay [5]; “no recognition” in assay [6]. The binding result in assay [7] is recorded as “no recognition”; in assay [8] it was “no recognition”; in assay [9], “no recognition”; in assay [10] it was “no recognition”; in [11], “no recognition”; in assay [12] it was “recognises”. In assay [13], this molecule yielded an EC50, half maximal killing capacity (functional avidity; CT45-IP peptide titration on T2 cells, luciferase release) of 4.69 nM. Also, the EC50 of peptide in assay [14] is 4.69 nM. In [15], this molecule returned a dextramer-positive events of 39.1%. Also, the surface expression, % positive events by CT45-IP-HLA-A2*02 dextramer staining in [16] was determined as 39.1%.

B2: TCR-3 (TCR, V domains shown)
Valpha: QKITQTQPGMFVQEKEAVTLDCTYDTSDQSYGLFWYKQPSSGEMIFLIYQGSYDEQNATEGRYSLNFQKARKSANLVISASQLGDSAMYFCGYSNYQLIWGAGTKLIIKP
Vbeta: QVTQNPRYLITVTGKKLTVTCSQNMNHEYMSWYRQDPGLGLRQIYYSMNVEVTDKGDVPEGYKVSRKEKRNFPLILESPSPNQTSLYFCASREGTGGYQPQHFGDGTRLSIL
Regarding B2, the binding result in [1] is “no recognition”; in assay [2] it was “recognises”; in [3] it was “no recognition”; in assay [4], “no recognition”; in assay [5] it was “no recognition”; in assay [6], “no recognition”. Also, the binding result in assay [7] was “no recognition”; in assay [8] it was “no recognition”; in [9], “no recognition”; in assay [10] it was “no recognition”; in [11] it was “no recognition”; in assay [12] it was “recognises”. The same molecule gave an EC50, half maximal killing capacity (functional avidity; CT45-IP peptide titration on T2 cells, luciferase release) in assay [13] of 1.02 nM. In addition, in [14], the EC50 of peptide came to 1.02 nM. In [15], this molecule gave a dextramer-positive events of 27.2%. In assay [16], this molecule showed a surface expression, % positive events by CT45-IP-HLA-A2*02 dextramer staining of 27.2%.

B3: TCR-1 (TCR, V domains shown)
Valpha: QTVTQSQPEMSVQEAETVTLSCTYDTSENNYYLFWYKQPPSRQMILVIRQEAYKQQNATENRFSVNFQKAAKSFSLKISDSQLGDTAMYFCAPLGLVAGSARQLTFGSGTQLTVLP
Vbeta: GVSQDPRHKITKRGQNVTFRCDPISEHNRLYWYRQTLGQGPEFLTYFQNEAQLEKSRLLSDRFSAERPKGSFSTLEIQRTEQGDSAMYLCASSTDITSYEQYFGPGTRLTVT
Take B3: the binding result in assay [1] is “no recognition”; in assay [2], “recognises”; in assay [3], “no recognition”; in assay [4], “no recognition”; in assay [5], “no recognition”; in assay [6], “no recognition”. Besides, the binding result in assay [7], in assay [8], in assay [9], in assay [10] and in assay [11] was “no recognition” each time. The same molecule displayed an EC50, half maximal killing capacity (functional avidity; CT45-IP peptide titration on T2 cells, luciferase release) in assay [13] of 7.78 nM. Moreover, the EC50 of peptide in assay [14] is 7.78 nM. In [15], this molecule gave a dextramer-positive events of 8.9%. The molecule also yielded a surface expression, % positive events by CT45-IP-HLA-A2*02 dextramer staining in assay [16] of 8.9%.

B4: TCR-9 (TCR, V domains shown)
Valpha: EDVEQSLFLSVREGDSSVINCTYTDSSSTYLYWYKQEPGAGLQLLTYIFSNMDMKQDQRLTVLLNKKDKHLSLRIADTQTGDSAIYFCAEKETAGNKLTFGGGTRVLVKP
Vbeta: EPEVTQTPSHQVTQMGQEVILRCVPISNHLYFYWYRQILGQKVEFLVSFYNNEISEKSEIFDDQFSVERPDGSNFTLKIRSTKLEDSAMYFCASTVQSPRTNEQFFGPGTRLTVL
For the molecule B4, the binding result in [1], in assay [3], in [4], in assay [5], in [6] and in [7] was “no recognition” throughout. Also, the binding result in [8], in assay [9] and in assay [10] was “no recognition” in each case. For the same molecule, in assay [13], the EC50, half maximal killing capacity (functional avidity; CT45-IP peptide titration on T2 cells, luciferase release) was 0.15 nM. The molecule also showed an EC50 of peptide in [14] of 0.15 nM. The molecule further registered a dextramer-positive events in [15] of 44%. In [16], the surface expression, % positive events by CT45-IP-HLA-A2*02 dextramer staining came out at 44%.

B5: TCR-13 (TCR, V domains shown)
Valpha: QKITQTQPGMFVQEKEAVTLDCTYDTSDQSYGLFWYKQPSSGEMIFLIYQGSYDEQNATEGRYSLNFQKARKSANLVISASQLGDSAMYFCAMSDPIMDTGRRALTFGSGTRLQVQP
Vbeta: GITQSPKYLFRKEGQNVTLSCEQNLNHDAMYWYRQDPGQGLRLIYYSQIVNDFQKGDIAEGYSVSREKKESFPLTVTSAQKNPTAFYLCASKSRGPNLADTQYFGPGTRLTVL
Regarding B5, the binding result in [1] is recorded as “no recognition”; in assay [2], “recognises”; in [3] it was “no recognition”; in assay [4] it was “no recognition”; in assay [5], “no recognition”; in assay [6], “no recognition”. For the same molecule, the binding result is listed as “no recognition” in [7]; “no recognition” in assay [8]; “recognises” in assay [17]; “no recognition” in assay [9]; “no recognition” in assay [10]; “no recognition” in assay [11]. The molecule further displayed an EC50, half maximal killing capacity (functional avidity; CT45-IP peptide titration on T2 cells, luciferase release) in [13] of 11.4 nM. This molecule registered an EC50 of peptide in [14] of 11.4 nM. For the same molecule, the dextramer-positive events in [15] came out at 53.1%. Besides, the surface expression, % positive events by CT45-IP-HLA-A2*02 dextramer staining in assay [16] was 53.1%.

B6: TCR-15 (TCR, V domains shown)
Valpha: KQEVTQIPAALSVPEGENLVLNCSFTDSAIYNLQWFRQDPGKGLTSLLLIQSSQREQTSGRLNASLDKSSGRSTLYIAASQPGDSATYLCAVLLTGKLIFGQGTTLQVKP
Vbeta: GVTQTPRYLIKTRGQQVTLSCSPISGHRSVSWYQQTPGQGLQFLFEYFSETQRNKGNFPGRFSGRQFSNSRSEMNVSTLELGDSALYLCASSGGPGPSGEQYFGPGTRLTVT
In the case of B6, the binding result in [1] is recorded as “no recognition”; in assay [2], “recognises”; in [3] it was “no recognition”; in assay [4], “no recognition”; in assay [5], “no recognition”; in assay [6] it was “no recognition”. For the same molecule, the binding result in assay [7], in [8], in [9], in assay [10] and in assay [11] was “no recognition” each time. Further, in assay [13], the EC50, half maximal killing capacity (functional avidity; CT45-IP peptide titration on T2 cells, luciferase release) amounted to 18.6 nM. The EC50 of peptide in [14] came to 18.6 nM. The molecule also returned a dextramer-positive events in assay [15] of 22.6%. For the same molecule, the surface expression, % positive events by CT45-IP-HLA-A2*02 dextramer staining in [16] was 22.6%.
